Square brackets hold non-standard residues; d marks the D form. Ends that are not written are not given here.

In the assay the target is T1, MitTx β subunit (Texas coral snake, UniProt G9I930 31-149).
T1 sequence: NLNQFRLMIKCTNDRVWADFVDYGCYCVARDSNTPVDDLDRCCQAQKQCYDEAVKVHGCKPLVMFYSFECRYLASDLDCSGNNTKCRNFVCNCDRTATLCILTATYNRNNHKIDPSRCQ
The assay is described as follows: crystal structure.

B1: MitTx α subunit (natural protein)
chain: [PCA]IRPAFCYEDPPFFQKCGAFVDSYYFNRSRITCVHFFYGQCDVNQNHFTTMSECNRVCHG
modifications: cysteine pairing not given here
Consider B1, for which the binding result is on record as “binds”.
